This assay deals with mouse FGFR4/β-klotho complex co-expressed in rat L6 myoblast cells (mouse) (UniProt Q03142). Kind of assay: cell-based or functional assay.
Chain of mouse FGFR4/β-klotho complex co-expressed in rat L6 myoblast cells (mouse) (Q03142 17-799, chain 1 of 2): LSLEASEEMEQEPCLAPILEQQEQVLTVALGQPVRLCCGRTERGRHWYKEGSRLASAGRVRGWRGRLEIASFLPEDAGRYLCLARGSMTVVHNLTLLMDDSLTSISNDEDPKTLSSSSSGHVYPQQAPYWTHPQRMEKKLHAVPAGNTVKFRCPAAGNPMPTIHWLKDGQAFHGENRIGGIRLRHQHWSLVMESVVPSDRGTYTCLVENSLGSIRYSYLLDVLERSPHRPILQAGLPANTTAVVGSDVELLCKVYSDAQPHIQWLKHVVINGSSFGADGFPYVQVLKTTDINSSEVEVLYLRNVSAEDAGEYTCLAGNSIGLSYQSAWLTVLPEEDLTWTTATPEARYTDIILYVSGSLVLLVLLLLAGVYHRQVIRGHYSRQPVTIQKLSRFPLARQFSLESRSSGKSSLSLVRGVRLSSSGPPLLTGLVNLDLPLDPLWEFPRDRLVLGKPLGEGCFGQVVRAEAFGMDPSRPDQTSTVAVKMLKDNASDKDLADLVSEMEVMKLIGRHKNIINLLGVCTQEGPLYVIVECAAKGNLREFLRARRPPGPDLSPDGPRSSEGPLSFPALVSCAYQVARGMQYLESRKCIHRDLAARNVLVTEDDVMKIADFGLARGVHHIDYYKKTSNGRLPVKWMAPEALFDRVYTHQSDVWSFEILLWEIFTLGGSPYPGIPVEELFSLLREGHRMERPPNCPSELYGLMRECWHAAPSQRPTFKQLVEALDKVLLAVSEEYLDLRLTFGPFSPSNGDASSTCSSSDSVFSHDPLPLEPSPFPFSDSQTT
Chain of mouse FGFR4/β-klotho complex co-expressed in rat L6 myoblast cells (mouse) (Q99N32 whole entry, chain 2 of 2, further chain): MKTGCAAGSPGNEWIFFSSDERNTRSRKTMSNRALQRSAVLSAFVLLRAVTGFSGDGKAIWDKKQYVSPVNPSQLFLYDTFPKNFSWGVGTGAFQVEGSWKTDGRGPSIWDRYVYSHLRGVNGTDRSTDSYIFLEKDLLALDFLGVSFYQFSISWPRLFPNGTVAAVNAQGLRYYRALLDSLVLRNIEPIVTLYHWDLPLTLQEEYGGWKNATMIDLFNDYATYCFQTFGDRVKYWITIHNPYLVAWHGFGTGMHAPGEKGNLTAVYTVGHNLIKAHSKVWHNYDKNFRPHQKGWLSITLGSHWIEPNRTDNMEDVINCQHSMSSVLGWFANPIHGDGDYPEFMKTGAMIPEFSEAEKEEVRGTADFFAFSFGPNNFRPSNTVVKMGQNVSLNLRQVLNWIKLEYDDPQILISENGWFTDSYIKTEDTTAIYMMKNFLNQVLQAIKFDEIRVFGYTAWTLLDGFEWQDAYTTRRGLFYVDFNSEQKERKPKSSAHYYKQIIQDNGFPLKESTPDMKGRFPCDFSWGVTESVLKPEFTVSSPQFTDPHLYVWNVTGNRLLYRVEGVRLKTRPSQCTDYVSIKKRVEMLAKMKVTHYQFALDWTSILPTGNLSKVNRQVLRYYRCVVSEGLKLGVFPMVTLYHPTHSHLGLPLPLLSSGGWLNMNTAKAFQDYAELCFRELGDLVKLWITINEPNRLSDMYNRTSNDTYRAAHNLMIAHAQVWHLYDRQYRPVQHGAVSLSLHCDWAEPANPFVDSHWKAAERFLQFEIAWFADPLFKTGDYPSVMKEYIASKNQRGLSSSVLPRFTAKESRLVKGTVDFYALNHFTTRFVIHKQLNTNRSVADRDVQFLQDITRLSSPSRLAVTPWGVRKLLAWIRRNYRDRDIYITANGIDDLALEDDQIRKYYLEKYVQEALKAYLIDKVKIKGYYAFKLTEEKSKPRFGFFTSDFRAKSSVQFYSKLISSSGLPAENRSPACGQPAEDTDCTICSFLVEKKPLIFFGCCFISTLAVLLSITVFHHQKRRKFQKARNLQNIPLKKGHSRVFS

“FGF19 (human fibroblast growth factor 19, wild type) (from UniProt O95750 25-216) (ligand)”: the EC50 (pM), ELK1 luciferase reporter in L6 cells transfected with mouse FGFR4 and β-klotho came to 52.5 pM; the Emax (fold potentiation), ELK1 luciferase reporter in L6 cells transfected with mouse FGFR4 and β-klotho (fold potentiation) came to 1.82.

These data come from patent US20200390859A1.
